Measured values as given in patent publication US20220016257A1 (Daiichi Sankyo, published 2022).

Assays:
[1] = biological target: T1, human CDH6 (full-length, on cells) (human, UniProt P55285 54-790); test: flow cytometry, 293α cells transiently transfected with pcDNA3.1-hCDH6, PE anti-human IgG Fcγ F(ab')2, mean fluorescence intensity
T1 construct: also called hCDH6; full-length hCDH6
T1 sequence: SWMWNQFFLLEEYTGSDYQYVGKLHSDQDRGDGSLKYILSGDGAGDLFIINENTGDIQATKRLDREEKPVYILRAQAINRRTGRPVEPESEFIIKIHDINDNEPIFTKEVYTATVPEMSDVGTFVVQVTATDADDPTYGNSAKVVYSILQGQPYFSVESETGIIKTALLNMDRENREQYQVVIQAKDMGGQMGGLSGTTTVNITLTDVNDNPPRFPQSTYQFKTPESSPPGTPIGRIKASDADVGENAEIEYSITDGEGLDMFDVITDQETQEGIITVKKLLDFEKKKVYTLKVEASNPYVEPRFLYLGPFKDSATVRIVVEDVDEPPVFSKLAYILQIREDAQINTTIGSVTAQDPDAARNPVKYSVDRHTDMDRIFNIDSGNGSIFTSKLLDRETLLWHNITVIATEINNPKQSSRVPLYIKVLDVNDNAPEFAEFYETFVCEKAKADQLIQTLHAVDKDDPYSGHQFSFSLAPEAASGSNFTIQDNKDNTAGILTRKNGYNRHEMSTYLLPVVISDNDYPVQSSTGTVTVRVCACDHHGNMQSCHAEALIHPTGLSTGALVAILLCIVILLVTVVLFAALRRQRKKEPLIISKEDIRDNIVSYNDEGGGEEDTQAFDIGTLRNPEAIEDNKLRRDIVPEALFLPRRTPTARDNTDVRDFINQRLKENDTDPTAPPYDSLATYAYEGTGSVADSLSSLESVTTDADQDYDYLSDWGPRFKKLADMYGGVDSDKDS
Protocol: (§1) The CDH6-binding activity of the human chimeric anti-CDH6 antibody chG019 purified in 4)-2 was confirmed by flow cytometry. […] The cells were cultured overnight under conditions of 37° C. and 5% CO₂, treated with TrypLE Express (Thermo Fisher Scientific Inc.), and thereafter, a cell suspension was prepared. chG019 was added to the suspension of each of these cells. The cells were left standing at 4° C. for 1 hour. Thereafter, the cells were washed twice with PBS supplemented with 5% FBS, and then suspended by the addition of PE-labeled F(ab′)2 Fragment anti-human IgG, Fcγ antibody (Jackson ImmunoResearch Laboratories, Inc.) that had been 500-fold diluted with PBS supplemented with 5% FBS. The cells were left standing at 4° C. for 1 hour. The cells were washed twice with PBS supplemented with 5% FBS, and then re-suspended in PBS supplemented with 5% FBS, followed by detection using a flow cytometer (Canto II; BD Biosciences). The data was analyzed using FlowJo (TreeStar, Inc.). […] In FIG. 4, the abscissa depicts antibody concentration, and the ordinate depicts the amount of the antibody bound, based on mean fluorescence intensity.

[2] = biological target: T2, cynomolgus monkey CDH6 (full-length, on cells) (cynomolgus monkey, UniProt P55285 54-790 (human entry)); test: flow cytometry, 293α cells transiently transfected with pcDNA3.1-cynoCDH6, PE anti-human IgG Fcγ F(ab')2, mean fluorescence intensity
T2 construct: Expressed from pcDNA3.1-cynoCDH6 on transfected cells; also called cynoCDH6
T2 sequence: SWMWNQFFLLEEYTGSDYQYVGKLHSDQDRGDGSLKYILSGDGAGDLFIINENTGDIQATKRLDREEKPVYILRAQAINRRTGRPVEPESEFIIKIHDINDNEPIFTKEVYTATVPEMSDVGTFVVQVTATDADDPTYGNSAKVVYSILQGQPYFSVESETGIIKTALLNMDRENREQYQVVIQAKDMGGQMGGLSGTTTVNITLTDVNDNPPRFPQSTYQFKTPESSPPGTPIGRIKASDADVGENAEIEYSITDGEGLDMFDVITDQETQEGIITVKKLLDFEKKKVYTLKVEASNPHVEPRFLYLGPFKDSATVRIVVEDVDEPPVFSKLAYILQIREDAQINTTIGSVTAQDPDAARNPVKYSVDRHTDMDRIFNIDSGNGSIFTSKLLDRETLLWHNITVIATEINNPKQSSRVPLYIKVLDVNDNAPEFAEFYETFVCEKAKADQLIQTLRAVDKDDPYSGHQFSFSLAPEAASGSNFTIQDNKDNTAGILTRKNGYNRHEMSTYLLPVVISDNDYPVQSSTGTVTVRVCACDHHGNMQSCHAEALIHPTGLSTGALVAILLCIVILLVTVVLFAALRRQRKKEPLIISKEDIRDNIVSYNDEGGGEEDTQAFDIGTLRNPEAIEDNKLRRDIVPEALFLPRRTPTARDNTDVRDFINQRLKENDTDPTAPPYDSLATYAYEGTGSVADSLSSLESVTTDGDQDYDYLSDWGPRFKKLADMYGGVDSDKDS
Protocol: as §1

[3] = biological target: T3, Recombinant Human Cadherin-6 (KCAD)/Fc Chimera (RD-SYSTEMS) (human, UniProt P55285 54-615, limits assumed); test: SPR (Biacore T200), antigen captured by immobilized anti-histidine antibody, antibody as analyte, steady state affinity model
T3 construct: Captured by an anti-histidine antibody; also called human CDH6; the antigen; not shown: Fc portion (and the histidine tag implied by anti-histidine capture) of the bought chimera
T3 sequence: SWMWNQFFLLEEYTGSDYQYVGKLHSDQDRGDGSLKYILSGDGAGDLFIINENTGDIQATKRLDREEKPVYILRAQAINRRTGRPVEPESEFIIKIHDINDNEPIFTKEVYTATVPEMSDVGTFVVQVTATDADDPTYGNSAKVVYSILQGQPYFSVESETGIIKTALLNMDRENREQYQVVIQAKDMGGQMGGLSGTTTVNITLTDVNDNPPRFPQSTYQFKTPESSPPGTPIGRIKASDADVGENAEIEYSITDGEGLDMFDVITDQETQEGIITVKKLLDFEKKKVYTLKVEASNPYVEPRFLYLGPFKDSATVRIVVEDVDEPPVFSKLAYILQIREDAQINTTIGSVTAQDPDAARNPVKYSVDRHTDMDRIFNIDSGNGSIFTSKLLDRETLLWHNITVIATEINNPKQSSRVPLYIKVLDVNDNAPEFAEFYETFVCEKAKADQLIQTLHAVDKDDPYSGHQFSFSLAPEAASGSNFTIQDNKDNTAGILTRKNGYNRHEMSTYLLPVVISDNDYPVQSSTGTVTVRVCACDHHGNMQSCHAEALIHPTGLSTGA
Protocol: The dissociation constant of a construct of each of H01L02A, H11L02A and H31L02A prepared in Example 7)-4 and human CDH6 was measured by using Biacore T200 (GE Healthcare Biosciences Corp.), according to a capture method, which comprises capturing the antigen as a ligand with Anti-histidine antibody immobilized by means of a His Capture Kit (manufactured by GE Healthcare Bioscience) and then measuring the dissociation constant using an antibody as an analyte. As the sensor chip, CM5 (manufactured by GE Healthcare Bioscience) was used. As the running buffer, buffer containing 20 mM Tris-HCl, 150 mM NaCl, 1 mM CaCl₂ and 0.05% Surfactant P20 (pH7.4), was used. On the chip, a 1 μg/mL Recombinant Human Cadherin-6 (KCAD)/Fc Chimera (RD-SYSTEMS) was added at a rate of 10 μL/minute for 60 seconds, and a dilution series solution (0.11 to 81 μg/mL) of the antibody prepared in Example 7)-4 was then added at a flow rate of 30 μl/min for 180 seconds. Subsequently, the dissociation phase was monitored for 180 seconds. As a regeneration solution, a Glycine 1.5 (GE Healthcare Bioscience made by the company) was added at a flow rate of 20 μl/min for 30 seconds. A Steady State Affinity model was used in data analysis, and the dissociation constant (KD) was calculated.

B1: human chimeric anti-CDH6 antibody chG019 (antibody, human IgG1)
heavy: not shown
light: DIQMTQSPSLLSASVGDRVTLNCKASQNIYKNLAWYQQKLGEGPKLLIYDANTLQTGIPSRFSGSGSGSDFTLTISSLQPEDVATYFCQQYYSGWAFGGVTNLELKRAVAAPSVFIFPPSDEQLKSGTASVVCLLNNFYPREAKVQWKVDNALQSGNSQESVTEQDSKDSTYSLSSTLTLSKADYEKHKVYACEVTHQGLSSPVTKSFNRGEC
notes: Human IgG1/kappa constant regions; also called chimeric G019 antibody; chG019 antibody
In the case of B1, the “EC50 (read off the curve)” value [1] is reported as roughly 0.01 µg/mL and the “EC50 (read off the curve)” value [2] is reported as roughly 0.01 µg/mL.

B2: humanized anti-CDH6 antibody H01L02A (antibody, human IgG1, kappa, L234A L235A)
heavy: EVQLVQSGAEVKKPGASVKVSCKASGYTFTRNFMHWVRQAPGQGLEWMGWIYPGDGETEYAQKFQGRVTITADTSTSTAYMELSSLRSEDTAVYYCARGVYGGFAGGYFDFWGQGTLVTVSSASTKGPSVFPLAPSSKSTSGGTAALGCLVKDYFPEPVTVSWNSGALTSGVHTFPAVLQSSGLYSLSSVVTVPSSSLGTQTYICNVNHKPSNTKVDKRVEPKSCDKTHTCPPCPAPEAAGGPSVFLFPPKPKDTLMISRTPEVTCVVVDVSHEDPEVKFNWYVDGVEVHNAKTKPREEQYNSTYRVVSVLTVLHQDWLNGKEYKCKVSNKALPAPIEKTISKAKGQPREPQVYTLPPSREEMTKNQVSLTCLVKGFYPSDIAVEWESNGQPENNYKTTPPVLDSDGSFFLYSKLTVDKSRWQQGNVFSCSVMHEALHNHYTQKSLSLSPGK
light: DIQMTQSPSSLSASVGDRVTITCKASQNIYKNLAWYQQKPGKAPKLLIYDANTLQTGVPSRFSGSGSGSDFTLTISSLQPEDFATYFCQQYYSGWAFGQGTKVEIKRTVAAPSVFIFPPSDEQLKSGTASVVCLLNNFYPREAKVQWKVDNALQSGNSQESVTEQDSKDSTYSLSSTLTLSKADYEKHKVYACEVTHQGLSSPVTKSFNRGEC
notes: hH01A heavy chain (hH01 with L234A/L235A, EU index; IgG1 LALA) and hL02 light chain; also called H01L02A antibody
B2 showed a Kd [3] of 2.8 nM.

B3: humanized anti-CDH6 antibody H11L02A (antibody, human IgG1, kappa, L234A L235A, V domains shown)
VH: EVQLVQSGAEVKKPGASVKVSCKASGYTFTRNFMHWVRQAPGQGLEWMGWIAPGDGETEYAQKFQGRVTITADTSTSTAYMELSSLRSEDTAVYYCARGVYGGFAGGYFDFWGQGTLVTVSS
VL: DIQMTQSPSSLSASVGDRVTITCKASQNIYKNLAWYQQKPGKAPKLLIYDANTLQTGVPSRFSGSGSGSDFTLTISSLQPEDFATYFCQQYYSGWAFGQGTKVEIKR
notes: hH11A heavy chain (hH01 with the 71st tyrosine changed to alanine, IgG1 LALA) and hL02 light chain; also called H11L02A antibody
B3 showed a Kd [3] of 43.1 nM.

B4: humanized anti-CDH6 antibody H31L02A (antibody, human IgG1, kappa, L234A L235A, V domains shown)
VH: EVQLVQSGAEVKKPGASVKVSCKASGYTFTRNFMHWVRQAPGQGLEWMGWIYPGDGETEYASKFQGRVTITADTSTSTAYMELSSLRSEDTAVYYCARGVYGGAAGGYFDFWGQGTLVTVSS
VL: DIQMTQSPSSLSASVGDRVTITCKASQNIYKNLAWYQQKPGKAPKLLIYDANTLQTGVPSRFSGSGSGSDFTLTISSLQPEDFATYFCQQYYSGWAFGQGTKVEIKR
notes: hH31A heavy chain (hH01 with the 81st glutamine changed to serine and the 123rd phenylalanine to alanine, IgG1 LALA) and hL02 light chain; also called H31L02A antibody
Work on B4 yielded a Kd [3] of 11.1 nM.
